Reference: patent publication US12214046B2, “Protein-loaded PLGA nanospheres” (West Virginia University Board of Governors on behalf of …, priority 2019, dated 2025)

Experiment: In vivo induction of free IL-12 toxicity in healthy mice (blood immunophenotyping by flow cytometry)
Design: species or system BALB/c mice
Settings: 100 ng or 100 ug retro-orbital, baseline vs 48 h
Description: Red blood cells were lysed with Red Blood Cell (RBC) Lysis Solution (Miltenyi Biotec, Auburn, CA). Single cell suspensions were split and incubated with optimized lymphoid (L) and myeloid (M) antibody panels according to the manufacturer's instructions: a minimum of 1×104 events were analyzed for each sample.
Two groups of four BALB/c mice (two female and two male per group) were cheek bled by piercing the facial venous plexus with a sterile 4 mm Goldenrod Animal Lancet (Braintree Scientific. Braintree. MA) to gather 100 μL whole blood for baseline immunophenotyping. Immediately following cheek bleeds, each group was given a retro-orbital (r.o.) injection of either a low (100 ng) or high (100 ug) dose of free recombinant mouse (rm) IL-12 (eBiolegend. San Diego. CA) with 0.1% mouse serum albumin (MSA. Sigma. St. Louis, MO) in 150 μL DPBS. At 24 and 48 hours following r.o. injections, mice underwent additional cheek bleeds for immunophenotyping.
Twelve BALB/c mice were cheek bled for 100 μL whole blood (baseline) before being dosed with either 100 ng (L: low dose) or 100 ug (H: high dose) of recombinant mouse (rm) IL-12 via retro-orbital (r.o.) injection. Mice were cheek bled again at 24 and 48 hours (48 h), and blood samples were immunophenotyped via flow cytometry. CD8^−CD4^+ helper T cells (left, white). CD4^−CD8^+ cytotoxic T cells (middle, gray), and CD8^−CD4^+FOXP3^+CD25^+/− regulatory T cells (right. black) were assessed for the extent of PD1^+TIM-3^+ positivity, which can be indicative of exhaustion. Shown in FIG. 17 are T cell data from baseline and 48 h time points. Individual bars (top half) represent group averages+SD. […] Baseline blood samples (n=4:2 male and 2 female per group) were compared to 48 h samples using unpaired two-tailed/tests, * p<0.05, ** p<0.01. *** p<0.001.
Twelve BALB/c mice were cheek bled for 100 μL whole blood (baseline) before being dosed with either 100 ng (L: low dose) or 100 ug (H: high dose) of recombinant mouse (rm) IL-12 via retro-orbital (r.o.) injection. […]

B1: IL-12: Recombinant mouse IL-12 (p70), immunostimulatory cytokine, purchased from Biolegend (protein, UniProt P43431 23-215; P43432 23-335, looked up)
Interleukin-12 subunit alpha: RVIPVSGPARCLSQSRNLLKTTDDMVKTAREKLKHYSCTAEDIDHEDITRDQTSTLKTCLPLELHKNESCLATRETSSTTRGSCLPPQKTSLMMTLCLGSIYEDLKMYQTEFQAINAALQNHNHQQIILDKGMLVAIDELMQSLNHNGETLRQKPPVGEADPYRVKMKLCILLHAFSTRVVTINRVMGYLSSA
Interleukin-12 subunit beta: MWELEKDVYVVEVDWTPDAPGETVNLTCDTPEEDDITWTSDQRHGVIGSGKTLTITVKEFLDAGQYTCHKGGETLSHSHLLLHKKENGIWSTEILKNFKNKTFLKCEAPNYSGRFTCSWLVQRNMDLKFNIKSSSSSPDSRAVTCGMASLSAEKVTLDQRDYEKYSVSCQEDVTCPTAEETLPIELALEARQQNKYENYSTSFFIRDIIKPDPPKNLQMKPLKNSQVEVSWEYPDSWSTPHSYFSLKFFVRIQRKKEKMKETEEGCNQKGAFLVEKTSTEVQCKGGNVCVQAQDRYYNSSCSKWACVPCRVRS
effect on PMN-MDSC in peripheral blood: Polymorphonuclear-Myeloid-Derived Suppressor Cell (PMN-MDSC) Myelocytosis
effect on T lymphocyte subsets in peripheral blood (PD1+TIM-3+ positivity): T cell exhaustion of helper, cytotoxic, and regulatory T lymphocyte subsets
effect on circulating Natural Killer (NK) cells: Decrease of Circulating Natural Killer (NK) Cells
